This is an account of results in patent publication US20250206841A1 (ADEPT THERAPEUTICS, published 2025).

What is called Kd is a measure of binding affinity in units of concentration. As a reminder, the koff is the first-order rate constant of dissociation. The kon is the rate constant with which the complex forms.

One assay addresses T1, human Trop-1 (EpCAM) (human, UniProt P16422 24-265, limits assumed).
T1 sequence (looked up): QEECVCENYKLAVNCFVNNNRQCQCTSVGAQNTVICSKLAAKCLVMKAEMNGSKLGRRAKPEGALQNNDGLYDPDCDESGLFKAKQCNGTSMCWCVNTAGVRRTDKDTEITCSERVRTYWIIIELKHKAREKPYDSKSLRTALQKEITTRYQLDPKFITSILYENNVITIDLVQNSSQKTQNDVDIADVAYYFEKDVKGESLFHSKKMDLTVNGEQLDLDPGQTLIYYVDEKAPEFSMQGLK
Put plainly: ELISA, similar to Table 24. As to the method:
(§1) Purified antibodies were tested by ELISA to confirm their binding and affinity against human and cynomolgus Trop-2-His protein. Briefly, 96-well Maxisorp plates (Nunc) were coated with 100 μl/well of 0.5 μg/ml human (Kactus Cat #TRP-HM121, or Sino Biological, Cat #10428-HO8H) or cynomolgus Trop-2 protein (Kactus Cat #TRP-CM121, or Sino Biological, Cat #90893-CO8H) diluted in 1×PBS (GIBCO) overnight at 4° C. Plates were washed four times with 300 μl/well washing buffer (1×PBST, diluted from 20×PBST (Thermo Scientific) with distilled water)) and then blocked with 300 μl/well of blocking buffer (1×PBST/3% BSA (BSA, Sigma)) for 2 hours at RT on plate shaker at 100 rpm. Plates were washed and added with 100 μl/well of testing antibodies, which were serial diluted with assay buffer (PBST/1% BSA). The antibodies were incubated at room temperature for 2 hours on plate shaker at 100 rpm. Plates were washed. One hundred microliters (100 μl) of 1:10,000 diluted horseradish peroxidase (HRP) conjugated anti-hIgG antibody (Jackson Immuno Research) was added into each well and incubated at room temperature for 1 hour on plate shaker at 100 rpm. Plates were washed and added with 100 μl/well TMB substrate for color development in dark at room temperature for up to 10 minutes. After addition of 50 μl/well of stop solution (1N H₂SO₄), plates were read at 450 nm on a plate reader (SpectraMax M5). EC₅₀ values were calculated using Graphpad Prism. Sacituzumab govitecan, was used as positive control. Anti-HEL.hIgG1 was used as isotype control.
(§2) Similar assays were performed to test whether the exemplary antibodies of the present disclosure bind to human Trop-1 (EpCAM) or mouse Trop-2 (Kactus, Cat #TRP-MM121) or rat Trop-2 (kactus, Cat #TRP_RM121). No binding of the exemplary antibodies of the present disclosure to human Trop-1 (EpCAM) or mouse or rat Trop-2 has been detected.
On the technique in general: In an ELISA, binding on a coated surface is turned into a signal by an enzyme label.

The next assay addresses T2, mouse Trop-2 (mouse, UniProt Q8BGV3 25-270, limits assumed).
T2 construct: also called Kactus Cat #TRP-MM121
T2 sequence (looked up): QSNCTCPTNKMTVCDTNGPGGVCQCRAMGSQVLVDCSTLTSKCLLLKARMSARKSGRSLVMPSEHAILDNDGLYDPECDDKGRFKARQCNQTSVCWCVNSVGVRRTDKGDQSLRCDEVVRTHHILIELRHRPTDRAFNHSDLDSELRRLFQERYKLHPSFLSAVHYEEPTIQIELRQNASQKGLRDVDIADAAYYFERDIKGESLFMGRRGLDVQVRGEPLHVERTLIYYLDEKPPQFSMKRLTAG
The assay is described as follows: ELISA, similar to Table 24. As to the method: as §1, §2

The target in another assay is T3, rat Trop-2 (rat, UniProt Q6P9Z6 25-270, limits assumed).
T3 sequence (looked up): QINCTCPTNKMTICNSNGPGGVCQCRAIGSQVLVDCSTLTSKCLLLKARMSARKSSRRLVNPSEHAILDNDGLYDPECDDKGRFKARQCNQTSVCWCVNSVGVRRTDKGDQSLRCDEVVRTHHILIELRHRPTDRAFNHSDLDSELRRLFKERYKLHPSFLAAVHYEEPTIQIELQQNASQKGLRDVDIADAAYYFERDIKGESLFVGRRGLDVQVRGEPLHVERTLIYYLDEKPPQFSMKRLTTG
The assay is described as follows: ELISA, similar to Table 24. On the procedure: as §1, §2

The target of assay [1] is T4, human Trop-2 expressed on cell surface (human, UniProt P09758 27-323).
T4 sequence (looked up): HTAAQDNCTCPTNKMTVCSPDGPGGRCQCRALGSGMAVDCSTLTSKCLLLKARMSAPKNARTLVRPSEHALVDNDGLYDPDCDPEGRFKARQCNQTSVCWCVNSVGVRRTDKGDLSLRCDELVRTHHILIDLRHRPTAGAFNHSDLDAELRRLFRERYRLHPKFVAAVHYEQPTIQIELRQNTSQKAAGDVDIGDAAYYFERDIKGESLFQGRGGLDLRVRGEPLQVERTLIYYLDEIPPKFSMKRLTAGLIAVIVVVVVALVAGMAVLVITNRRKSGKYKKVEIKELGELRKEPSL
Put plainly: cell-based or functional assay.

The next assay has as its target T5, human Trop-2-His protein (human, UniProt P09758 27-274).
T5 construct: extracellular domain; Assay paragraphs say only 'Trop-2-His'; also called hTrop-2; Kactus Cat #TRP-HM121; not shown: His tag
T5 sequence (looked up): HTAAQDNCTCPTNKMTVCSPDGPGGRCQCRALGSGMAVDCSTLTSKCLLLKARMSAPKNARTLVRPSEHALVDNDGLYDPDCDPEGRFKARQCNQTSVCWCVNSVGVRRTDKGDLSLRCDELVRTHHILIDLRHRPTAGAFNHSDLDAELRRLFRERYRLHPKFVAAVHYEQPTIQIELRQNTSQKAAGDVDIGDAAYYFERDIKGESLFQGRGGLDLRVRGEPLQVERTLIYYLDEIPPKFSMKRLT
The assay is described as follows: BLI (Gator Plus), purified Ab on HFC probe. As to the method: The affinity of the binding of the exemplary anti-Trop-2 antibodies of the present disclosure were determined. Assay was performed using Gator Plus according to the protocol recommended by Gator Bio Inc.. Briefly, human Trop-2-His (Kactus) was 1:4 fold serially diluted starting at 1 μg/ml. After three times of regeneration and neutralization of HFC probe, 1 μg/ml of antibody to be tested in Q buffer was immobilized onto HFC probe. […] The association and dissociation of human Trop-2-His antigen from antibody was measured on BLI machine Gator Plus. Affinity was calculated using Gator Bio analysis software. Blank control was used for reference subtraction. Sacituzumab govitecan was used as positive control.

B1: 5D4-1 (antibody, V domains shown)
VH: QQLEESGGGLVKPEGSLTLTCKGSGFDFSGTYWMWWVRQAPGKGLEWIAPIYVGSGSSTYYASWAKGRFTISSTSSTAVTLQATSLTAADTATYFCARGATNNVFMNYFNLWGPGTLVTVSS
VL: FEMTQTPSSVSEPVGGTVTIKCQASEDISSNLGWYQQKPGQPPKLLIYGASTLASGVPSRFKGSGSGTEFTLTISDLEPADAATYYCQTSYYIDDGVNGFGGGTEVVVK
For the molecule B1, the binding result with human Trop-1 (EpCAM) is listed as “no binding”. For the same molecule, in the assay with mouse Trop-2, the binding result is “no binding”. Besides, the binding result with rat Trop-2 is “no binding”. Moreover, in assay [1], the “Internalization %, MCF-7, 0.25 µg/ml, 1 h” value turned out to be 59%; the “Internalization %, MCF-7, 0.25 µg/ml, 2 h” value was determined as 57%; the “Internalization %, MCF-7, 0.25 µg/ml, 4 h” value was 62%; the “Internalization %, MCF-7, 0.5 µg/ml, 1 h” value came out at 42%. For the same molecule, in assay [1], the “Internalization %, MCF-7, 0.5 µg/ml, 2 h” value amounted to 56% and the “Internalization %, MCF-7, 0.5 µg/ml, 4 h” value came out at 73%. Besides, in the assay with human Trop-2-His protein, the Kd was 100 pM, the koff was determined as 5.1e-05 s⁻¹ and the kon stood at 489000 M⁻¹ s⁻¹.

B2: 5D4-2 (antibody, V domains shown)
VH: QQLEESGGGLVKPEGSLTLTCKGSGFDFSGTYWMWWVRQAPGKGLEWIASIYVGSGSSTYYASWAKGRFTISSTSSTAVTLQATSLTAADTATYFCARGATNNVFMNYFNLWGPGTLVTVSS
VL: FEMTQTPSSVSEPVGGTVTIKCQASEDISSNLGWYQQKPGQPPKLLIYGASTLASGVPSRFKGSGSGTEFTLTISDLEAADAATYYCQTSYYIDDGVNGFGGGTEVVVK
B2: the binding result with human Trop-1 (EpCAM) was “no binding”. In addition, the binding result in the assay with mouse Trop-2 is “no binding”. Moreover, the binding result with rat Trop-2 was “no binding”. In assay [1], the “Internalization %, MCF-7, 0.25 µg/ml, 1 h” value was 51%; the “Internalization %, MCF-7, 0.25 µg/ml, 2 h” value was determined as 67%; the “Internalization %, MCF-7, 0.25 µg/ml, 4 h” value is 58%; the “Internalization %, MCF-7, 0.5 µg/ml, 1 h” value stood at 23%. Besides, in assay [1], the “Internalization %, MCF-7, 0.5 µg/ml, 2 h” value is 43% and the “Internalization %, MCF-7, 0.5 µg/ml, 4 h” value turned out to be 61%. Moreover, in the assay with human Trop-2-His protein, the Kd was found to be 120 pM, the koff worked out at 6e-05 s⁻¹ and the kon turned out to be 487000 M⁻¹ s⁻¹.

B3: 63H3 (antibody, V domains shown)
VH: QEQLKESGGGLVQPGGSLKLSCKASGFDFNSYGVSWVRQAPGKGLEWIAYIYPAFHNAYYANWVNGRFTISSDNAQNTVDLQLNSLTAADTATYFCARDAGGTDYNYNLWGPGTLVTVSS
VL: DVVMTQTPASVEVAVGGTVTLKCQASEDIESYSAWYQQKPGQPPNLLIYEASKLASGVSSRFSGSGYGTEFTLTISGVECADAATYYCQQALTIGNVDNPFGGGSEVVVR
notes: Rabbit-derived clone; LEM construct: VH + rabbit IgG CH1 + human IgG1 CH2-CH3
As to B3, the binding result in the assay with human Trop-1 (EpCAM) was “no binding”. Besides, in the assay with mouse Trop-2, the binding result was “no binding”. Further, the binding result with rat Trop-2 was “no binding”. Moreover, in assay [1], the “Internalization %, MCF-7, 0.25 µg/ml, 1 h” value came out at 15%; the “Internalization %, MCF-7, 0.25 µg/ml, 2 h” value stood at 26%; the “Internalization %, MCF-7, 0.25 µg/ml, 4 h” value turned out to be 36%; the “Internalization %, MCF-7, 0.5 µg/ml, 1 h” value amounted to 23%. In assay [1], the “Internalization %, MCF-7, 0.5 µg/ml, 2 h” value amounted to 37% and the “Internalization %, MCF-7, 0.5 µg/ml, 4 h” value came to 44%. For the same molecule, in the assay with human Trop-2-His protein, the Kd worked out at 30 pM, the koff is 2.5e-05 s⁻¹ and the kon was 766000 M⁻¹ s⁻¹.

B4: 66A1 (antibody, V domains shown)
VH: QEQLKESGGGLVQPGGSLKLSCKASGFDFNNYGVSWVRQAPGKGLEWIAYIYPAFHNTYYASWVNGRFTISSHNAQNTLYLQLNSLTAADTATYFCARDAGGTDYAYNLWGPGTLVTVSS
VL: DVVMTQTPASVEAAVGGTVSINCQASEDIESYLAWYQQKPGQPPKLLIYKASTLASGVSSRFKGSGSGKQFTLTISGVECADAATYYCQQVLTIGNVDNPFGGGSEVVVK
notes: as for B3
With B4, the binding result in the assay with human Trop-1 (EpCAM) is on record as “no binding”. Moreover, the binding result in the assay with mouse Trop-2 is recorded as “no binding”. In addition, the binding result in the assay with rat Trop-2 is listed as “no binding”. In assay [1], the “Internalization %, MCF-7, 0.25 µg/ml, 1 h” value came out at 20%; the “Internalization %, MCF-7, 0.25 µg/ml, 2 h” value stood at 36%; the “Internalization %, MCF-7, 0.25 µg/ml, 4 h” value was 45%; the “Internalization %, MCF-7, 0.5 µg/ml, 1 h” value is 33%. In addition, in assay [1], the “Internalization %, MCF-7, 0.5 µg/ml, 2 h” value came out at 45% and the “Internalization %, MCF-7, 0.5 µg/ml, 4 h” value stood at 53%. Further, in the assay with human Trop-2-His protein, the Kd is 250 pM, the koff was 0.000193 s⁻¹ and the kon stood at 788000 M⁻¹ s⁻¹.

B5: 65D5 (antibody, V domains shown)
VH: QEQLKESGGGLVQPGGSLKLSCKASGFDFNAYGVSWVRQAPGKGLEWIAYIYPAFHNTYYATWVNGRFTISSHNAQNTLYLQLNTLTAADTATYFCARDAGTTDYNFNLWGPGTLVTVSS
VL: DIVMTQTPASVSEPVGGTVTIKCQASQSISSYLAWYQQKPGQPPKLLIYEATKLTSGVSSRFSGSGYGTEFTLTISGVECADAATYYCQQALTVGDVDNPFGGGSEVVVK
notes: as for B3
In the case of B5, in the assay with human Trop-1 (EpCAM), the binding result was “no binding”. In the assay with mouse Trop-2, the binding result was “no binding”. Also, the binding result in the assay with rat Trop-2 was “no binding”. In assay [1], the “Internalization %, MCF-7, 0.25 µg/ml, 1 h” value worked out at 18%; the “Internalization %, MCF-7, 0.25 µg/ml, 2 h” value was 36%; the “Internalization %, MCF-7, 0.25 µg/ml, 4 h” value is 41%; the “Internalization %, MCF-7, 0.5 µg/ml, 1 h” value turned out to be 23%. Moreover, in assay [1], the “Internalization %, MCF-7, 0.5 µg/ml, 2 h” value was found to be 41% and the “Internalization %, MCF-7, 0.5 µg/ml, 4 h” value worked out at 42%. Besides, in the assay with human Trop-2-His protein, the Kd amounted to 1100 pM, the koff was found to be 0.000898 s⁻¹ and the kon is 819000 M⁻¹ s⁻¹.
